Like-named read-outs stand apart in the source and are kept apart here.
Assays:
casein [1] = target: casein
casein [2] = target: casein; remark: listed apart in the source

Km of casein hydrolysis (Lineweaver-Burk, pH 9.5, 70 °C) (casein [1]): 0.295 mg/mL
Km of casein hydrolysis (Lineweaver-Burk, pH 9.5, 70 °C) (casein [2]): 0.275 mg/mL
Substance: SPPS, serine alkaline protease from Pleurotus sajor-caju strain CTM10057 (enzyme)
